Biological target: PICK1 WT without SNAP-tag (rat (Rattus norvegicus)), Q9EP80
Test: fluorescence polarisation; competition: increasing unlabelled peptide, fixed 70% saturating PICK1 with OrG DAT C13; 50 mM Tris pH 7.4, 125 mM NaCl, 1 mM DTT, 0.01% Triton X-100; on ice; apparent Ki

Ki: 2100 nM
B1: unlabeled peptide of the DAT C-terminus (competitor in fluorescence polarisation) (peptide)
chain: EVRQFTLRHWLKV
modifications: not checked
